# Measured values as given in US5972656.
# Residue numbers refer to the chain shown, from its start.
# B1: monoclonal antibody 1C11 (antibody, V domains shown)
# VH: SGAELVKPGASVKLSCKTSGYTVTSYWMGWVKQRPGQGLEWIGNIYPDSGTTNYNEKFKNKATLTVDTFSSTVYMQLSSLTSEDSAVYYCARGVYSYYSYDVYAMDYWGQGTSVTVSS
# VL: DLVLTQSPPSLAVSLGQRSTISCRSSQSIVHSNGNTYLHWYQQNPGQPPKLLIKYASNLESGVPARFSGSGSGTDFTLNIHPAEVEDSATYFCQHSWEIPPTFGGGTKLEIK
# B2: monoclonal antibody 2D5 (antibody, V domains shown)
# VH: SGGGSVKPGGSLKLSCAASGFTFSSCAMSWVRQTPEKRLEWVATISSGGSYTYYPDSVKGRFTIFRHNAENTLYLQMSSLRSEDTAIYYCVRQDGYYGNYVWFAYWGQGTLVTVSA
# VL: ELVMTQSPASLSASVGETVTITCRASENIYGYLAWYQQKQGKSPLPRVYNAKTLAEDVSSRVSGSGSGTQFSLKIRTSQPEDFGTYYCQHHYGTPYTFGGGTKLEIK
# B3: monoclonal antibody 5B6 (antibody, V domains shown)
# VH: B2 VH with C26R, F65S, L75F, D94T, V101E, T110L
# VL: DIQMTQSPSSLSASLGERVTLTCRASQDIGSSLNWLQLKPDGTIKRLIYATSGLDSGVPKRFSGSRSGSDYSLTINSPESEDFVDYYCLQCSNSPYTFGGGTKLEIN
# B4: monoclonal antibody 5G4 (antibody, V domains shown)
# VH: SVPARLKPGASVRISCKASAYSFTGYFMNWMKQSHGKTLEWIGRINPYNGDTFYNQKFKSKATVTVDKSSSTAHMELLSLTSEDSAVYYCGTQPLDYWGQGTTLTVSS
# VL: B3 VL with N107K
# B5: monoclonal antibody 4A10 (antibody, V domains shown)
# VH: EVQLQQSGPELVKPGALVKISCKASGYTFTSYDINWVKQRPGQGLEWIGWIYPGDGSTKYNEKFKGKATLTADKSSSTAYMQLSSLTSENSAVYFCARCGYAMDYWGQGTSVTVSS
# VL: DVLMTQTPLSLPVSLGDQASISCRSSQSIVHSNGNTYLEWYLQKPGQSPKLLIYKVSNRFSGVPDRFSGSGSGTDFTLKISRAEAEDLGVYYCFQGSHVRYTFGGGTKLEIK
# B6: monoclonal antibody 23F8 (antibody, V domains shown)
# VH: SGPELVKTGASVKISCKASGYSFTGYYMHWVKQSHGKSLEWIGYISCYNGATSYNQKFKGKATFTVDTSSSTAYMQFNSLTSEDSAVYYCARSGIYDVTTTLTTGAKAPLSQSP
# VL: DIQMTQSPSSLSASLGGKVTITCKASQDINKYIAWYQHKPGKGPRLLIHYTSTLQPGIPSRFSGSGSGRDYSFSISNPEPEDIATYYCLQYDNSLFTFGSGTKLEIK
# How the values were obtained:
# BSA-glutathione (bovine) [1] = molecular target: BSA-glutathione (bovine) (UniProt P02769); assay: ELISA, culture supernatant on BSA-GSH plates without mercury
# BSA-glutathione (bovine) [2] = molecular target: BSA-glutathione (bovine) (UniProt P02769); assay: ELISA, culture fluid on glutathione-BSA (column Glutathione)
# BSA-glutathione (bovine) [3] = molecular target: BSA-glutathione (bovine) (UniProt P02769); assay: ELISA, subclone culture fluid on BSA-glutathione, average of triplicates
Binder,absorbance at 405 nm (absorbance at 405 nm) (BSA-glutathione (bovine) [1]),absorbance at 405 nm (absorbance at 405 nm) (BSA-glutathione (bovine) [2]),absorbance at 405 nm (absorbance at 405 nm) (BSA-glutathione (bovine) [3])
B1,0.094,,
B2,0.09,,
B3,0.019,,
B4,0.028,,
B5,0.078,0.4,0.322
B6,0.168,,
